Laboratory results: patent US20250090876A1 (published 2025)

Molecular target: antigen target
Experiment: BLI

Kd: 11.6 nM
B1: ESS0102 5A (antibody, V domains shown)
VH: EVQLLESGGGLVQPGGSLRLSCAASGFSFSSYEMNWVRQAPGKGPEWISYISSGGGTIYYADSVRGRFTISRDNSNNTLYLQMNSLRPDDTAIYYCARDRGRKWLQLLFDSWGQGTLVTVSS
VL: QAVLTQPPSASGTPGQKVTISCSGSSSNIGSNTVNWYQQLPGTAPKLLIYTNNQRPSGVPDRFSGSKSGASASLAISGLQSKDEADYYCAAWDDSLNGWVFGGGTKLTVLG
